Test: yeast display, Sf9 membrane polyspecificity reagent, FACS + sequencing; frameworks hold sequencing errors
In short: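 Synthetic nanobody libraries on Saccharomyces cerevisiae BJ5465 were galactose-induced for 36–48 hours, stained 1 hour at 4 °C with 10% biotinylated, detergent-solubilized Sf9 membrane reagent and enriched on streptavidin microbeads. FACS then separated cells into low and high (top ~1%) gates by anti-HA (expression) and streptavidin (reagent binding) fluorescence. Genes were colony-PCR amplified, MiSeq 2 × 250 sequenced and CDR-length filtered. A clone's polyreactivity label is that of its gate of origin.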

Sequence | polyreactivity (PSR sort gate)
QVQLVESGGGLVQAGGSLRLSCAASGLIFVSYAMGWYRQEPGKERELVASITDSDSSTYYADSVKGRFTISRDNAKNTVYLQMNSLKPEDTAVYSCATGGRTEIWYPTLDYWGQGTQVTVSS | low polyreactivity
QVDLVASGGGLVQAGGSLRLSCAASGNIFANYAMGSYRQAPGKERELVAAIRWSASRTYYADSVKARFTISRDNAKNSVYFQLNSLKPEDTAVYYCAATIYTFWDYYYDYWGQGTQVTVSW | high polyreactivity
QVLLVESGGGLVQAGGSLRLSCAASGYIIDVNAMGWYRQAPGKERELVASISSGTSTYYADSVKGRFTISRDNAKNTVYLQMNSLKPEDTAVYYCNAGVEFAASLYYSDNYDYWGQGTQVTVSS | low polyreactivity
QVQLVESGGGLVQAGGSLRLSCAASGRTFGYYAMGWYRPAPGKERELVAAITRTGGSTHYADSVKGRFTISRDNAKNTVYLQMNSLKPEDTAVYYCAVDYHQAWPSADYWFEYDYWGQGTQVTVSS | low polyreactivity
QDQLVESGGGLVQAGGSLRLSCAASGFTFRANAMGWYRQAPGKERELVAAISSGGRTNYADSVKGRFTISRDNAKNTVYLQMNSLKTEDTAVYYCAAAPSKWYYGYGYWGQGTQVTVSS | high polyreactivity
QVQLVESGGGLVQAGGSLRLSCAASGRTFYLYTKGWYRQAPGKERELVAAISRGGRTYADSVKGRFTISRDNAKNTVYLQMNSLKPEDTAVDYCNRELTSPRRWHVSRAYDYWGQGTQVTVSS | low polyreactivity
QVQLVESGGCLVQAGGTLRLSCAASGRTFIVYSMGWYRPAPGKERELVAAITTSVGRTYYADSVKGRFTISRDNAKNTVFLQMISLKPEDTAVYYCADDLLDGYSEYSYWGQGTQVTVSS | low polyreactivity
QVQLVESGGGLVQAGGSLRLSCDASGSNFFYARGWSRQAPGRERELVADITYTGGSKYADSVKGRFTISRDNAKNTVDLQLNILKPEDTAVSYCAKLDGGLFDYWGQGTQVNVSS | low polyreactivity
QVHLVESGGALVQAGRSLRLSCAASGSTFTINVKGWYRQAPGKERELVAAINGGGRTNYADSVKGRFTISRDNAKNTVYLLMNSLKPEDTAVYYCAADGLSNVRQMDYWGQGTQVTVSS | low polyreactivity
QVQLVESGGGLVQAGGSLRLSCAASGSIFYPYAMGWYRQAPGKERELVAAISSGGTTYYADSVKGRFTISRDNAKNTVYLQMNSLKPEDTAVYYCAAGFYLRAVWMDYWGQGTQVTVSS | high polyreactivity
QVQLVESGGGLVQAGGSLRLSCAASGFIFAEYAMGWYRQAPGKERELVAAITSGGSTSYADSVKGRFTISRDNAKNTVYLQMNSLKPEDTAVYYCAATWYYHYNDWKHWYEYGYWGQGTQVTVSS | low polyreactivity
QVQLVESGGGLVQAGGSLRLSCAASGSTFGYNAMGGYRQAPGKERELVAAITWTGASTYYADSVKGRFTISRDNAKNTVYLQMNSLKPEDTAVYYCNLVGYQSMNYWGQGTQVTVSS | low polyreactivity
QVQLVESGGGLVQAGGSLRLSCAASGRIFRQNAMGWYRQAPGKERELVAAISRSGGSTYYADSVKGRFTISRDNAKNTVYLQMNSLKPEDTAVYYCAADVHTPALYTYAAGDYWGQGTQVTVSS | low polyreactivity
QVQLVESGGGLVQAGGSLRLSCAASGSTFVQNDMGWYIPAPGKERELVAAISRTGGSTYYADSVKGRFTISRDNAKNTVYLQMNSLKPEDTAVYYCARRYYYQYRYDYWGQGTQVTVSS | high polyreactivity
QVQLVESGRGLVQAGGSLRLSCAASGRIFRYYAMGWYRQAPGKERELVATITDGGSTSYADSVKGRFTISRDNAKNTVYLQMNSLKPEDTAVYYCARDPLPSYWKVWSRPTFDYWGQGTQVTVSS | low polyreactivity
QVQLVESGGGLVQAGGSLRLSCAASGSTFRYYAMGWYRQAPGKERELVAAINYGGGRTYYADSVKGRFTISRDNAKNTVYLQMNSLKPEDTAVYYCATGYYYYRFYTYGYWGQGTQVTVSS | high polyreactivity

Sequence | polyreactivity (PSR sort gate)
QVQLVESGGGLVQAGGSLRLSCAASGFTFAYYTMGWYRQAPGKERELVATISTSGGSTYYADSVKGRFTISRDNAKNTVYLQMNSLKPEDTAVYYCNRDLGRYYHWYDYWGQGTQVTVSS | low polyreactivity
QVQLEESGGGLVQAGGSLRLSCAASGLTFTPNAMGWYRPAPGKEWELVAAITNGGSTNYADSVKGCFTISRDNAKNTVYLQMNSLKPEDTAVYYCAAECSYWFRRYGYWGQGTQVTVSS | high polyreactivity
QVQLVESGGGLVQAVGSLRLSCAASGSIFAVNTIGWYRQAPGKERELVASISQRGSSTYYADSVKGRFTISRDIAKNTVYLQMNSLIPEDTAVYYCAVVQRYWYAGIVPYDYWGQGTQVTVSS | high polyreactivity
QVQLVESGGGLVQAGRSLRLSCAASGNTFWFYGMGWYRQAPGKVRELVAAITSGGSTDYADSVKGRFTISRENAKNTVSLQMNSLKPEDTAVYYCAAEPVAYYGSSYGYWGQGTQVTVSS | low polyreactivity
QVQLVESGGGLVQAGGSLRLSCAASGFIFDTNAMGWSRQAPGKDRELVARISSSAGSTYYAVSVKGRFTISRDNAKNTVYLLMNSLKPEDTAVYYCNADTGLGSLDFDKRDYWGQGTQVTVSS | low polyreactivity
QVQLVESGGGLVQAGGSLRLSCAASGRIFGRNAMGWYRQAPGKERELVAAISSGGSTYYADSVKGRFTISRDNAKNTVYLQMNSLKPEDTAVYFCAVRGSYYNGGRAFESWGQGTQVTVSS | high polyreactivity
QVQLVESGGGLVQAGGRLRLSSAASGRIFASNAMGWYRQAPGKERELVARIDSGGITNYADSVKGRFTISRDNAKNTVYFQMNSLKPEDTGVYYCAKSVGWWSPPLGVYWVQGTQVTVSS | low polyreactivity
QVQLVESGGGLVQAGCSLRLSCAASGRTFVHYTMGWYRQAPGKERELVATISTSGGSTSYADSVKGRFTISRDNAKNTVYLQMNSLKPEDTAVYYCAARWYFPDRVKYDYWGQGTQVTVSS | low polyreactivity
QVQLVESGGGLVQAGGSLRLSCAASGRIFHYAMGWYRQAPGKERELVAGISKRGGSTYYADSVKGRFTISRDNAKNTVYLQMNSLKPEDTAVYYCAAGRAYDGTKHDYWGQGTQVTVSS | high polyreactivity
QVQLVESGGGLVQAGGSLRLSCAASGRTFGRYVMGWYRQAPGKERELVAAIDGSGGSTYYADSVKGRFTISRDNAKNTVYLQMNSLKPEDTAVYYCNADVGFVGGDYWGQGTQVTVSS | high polyreactivity
QVQLVESGGGLVQAGGSLRLSCAASGRIFRPYAMGWYRQAPGKERELVAGITSSGGSTYYADSVKGRYTISRDNAKNTVYLQMNSLKPEDTAVYYCAAVHGLFRPLHYYWGQGTQVTVSS | low polyreactivity
QVQLVESGGGLVQAGGSLRLSCAASGFTFWGYGMGWYRQAPGKERELVAAISGSGGSTYYADSVKGRFTISRDNAKNTVFLQMNSLKRKIPRSITALLFTVNGGGSRSHDYWAQGTQVTVSS | low polyreactivity
QVQLVESGGGLVQAGGSLRLRCATSGSIFRIYAMGWYRQAPGKERELVAAIDSGGSTNYADYVKGRFTISRDNAKNTVYFQMNCLKPEDTAVFYCNVEAWWLSYSEYDYWGQGTQVTVSS | high polyreactivity
QVQLVESGGGLVQAGGSLRLSCAASGSIFFYAMGWYRQAPGKERELVADITYTGGSKYADSEKGRFTISRDNAKNTVYLQMNSLKPEETAVYSGATLDGGLFDDWGQGTQVTVSS | low polyreactivity
QVQLVESGGGLVQAGGSLSLSCAASGRIFTQYAMGWSRQAPGKERELVTAINASDGSTYADSVKGRFTISRDNAKNTVYLQMNCLIPEDTAVYYCNVTGGPYDFTRWSEFDHWGQGTQVTVSS | low polyreactivity
QVQLVESGGGLVQAGGSLRLSCAASGRTFGLYAMGWYRQAPGKERELVAAISYSGGRTYYADSVKGRFTISRDNAKKTVYLQMNILKPEDTAVYYCNKAWFRYYYYRFDYWGLGTQVTVSS | high polyreactivity

From the nanobody polyreactivity screen of Harvey et al. (2022)
